{
  "source": "paper PMC10937788",
  "about": "(Plant Molecular Biology, 2024)",
  "molecules": {"B1": {"name": "SyArgG (Synechocystis sp. PCC 6803 substr. Kazusa) (protein)", "chain": "MGRAKKVVLAYSGGVDTSVCIPYLMHEWGVEEVITLAADLGQGDELGPIQEKALRCGAVESLVIDGKEEFVKEYAFRSIQANALYENRYPLSTALARPLIAKMLVEAAEKYGADAVAHGCTGKGNDQVRFDISIMALNPNLKVLAPAREWKMSREETIAYGERYGVESPVKKSSPYSIDRNILGRSIEAGPLEDPMTEPTEEIYLMTKAIADTPDEPEYVDIGFEKGIPVSLNGVMLDPVTLVERLNEIAGNHGVGRLDMVENRVVGIKSREIYEAPALLVLIDAHRDLESLTQTADVTHYKNTVEEIYSQLIYRGLWYSPLKEALDAFIVKTQERVTGMVRVKFFKGNANVAGRKSDYSIYDAELATYGMEDQFDHKAAEGFIYIWGLPTKVWAQKMRG", "notes": "synthetic ORF in pGEX-6P-1 (BamHI-XhoI); GST-tagged, tag kept (eluted with glutathione, no cleavage described); expressed in E. coli BL21(DE3)"}},
  "key": {"SyArgG": {"target": "T1, SyArgG (Synechocystis sp. PCC 6803, UniProt P77973)", "T1 construct": "gene argG; synthetic ORF in pGEX-6P-1 (BamHI-XhoI); GST-tagged, tag kept (eluted with glutathione, no cleavage described); expressed in E. coli BL21(DE3)", "T1 sequence (P77973 1-400)": "B1 chain", "experiment": "coupled NADH oxidation assay (myokinase, pyruvate kinase, lactate dehydrogenase), […] nm", "type": "biochemical", "settings": "read-out: % residual activity at 5 mM"}, "purified protein [1]": {"substrate": "N[C@@H](CC(=O)O)C(=O)O", "experiment": "purified protein", "settings": "38 °C, pH 9.0 Tris-HCl, 5 mM MgCl2, 2 mM KCl, co-substrates 7.5 mM citrulline, 1 mM ATP"}, "purified protein [2]": {"substrate": "NC(=O)NCCC[C@H](N)C(=O)O", "experiment": "purified protein", "type": "biochemical, Synechocystis sp. PCC 6803", "settings": "38 °C, pH 9.0 Tris-HCl, 5 mM MgCl2, 2 mM KCl, co-substrates 7.5 mM aspartate, 1 mM ATP"}, "purified protein [3]": {"substrate": "Nc1ncnc2c1ncn2[C@@H]1O[C@H](COP(=O)(O)OP(=O)(O)OP(=O)(O)O)[C@@H](O)[C@H]1O", "experiment": "purified protein", "type": "biochemical, Synechocystis sp. PCC 6803", "settings": "38 °C, pH 9.0 Tris-HCl, 5 mM MgCl2, 2 mM KCl, co-substrates 7.5 mM citrulline, 7.5 mM aspartate"}},
  "data": [
    {"molecule": "N=C(N)NCCC[C@H](N)C(=O)O", "note": "[arginine]", "values": [
      {"measurement": "remaining activity at 5000 µM", "setting": "SyArgG", "result": 18.4, "unit": "%"}
    ]},
    {"molecule": "NCCCC[C@H](N)C(=O)O", "note": "[lysin]", "values": [
      {"measurement": "remaining activity at 5000 µM", "setting": "SyArgG", "result": 78.1, "unit": "%"}
    ]},
    {"molecule": "NCCC[C@H](N)C(=O)O", "note": "[ornithine]", "values": [
      {"measurement": "remaining activity at 5000 µM", "setting": "SyArgG", "result": 80.1, "unit": "%"}
    ]},
    {"molecule": "O=C(O)CCC(=O)O", "note": "[succinate]", "values": [
      {"measurement": "remaining activity at 5000 µM", "setting": "SyArgG", "result": 92.1, "unit": "%"}
    ]},
    {"molecule": "B1", "values": [
      {"measurement": "Km", "setting": "purified protein [1]", "result": "0.36 ± 0.04", "unit": "mM"},
      {"measurement": "kcat", "setting": "purified protein [1]", "result": 0.77, "unit": "s⁻¹"},
      {"measurement": "kcat/Km", "setting": "purified protein [1]", "result": 2160, "unit": "M⁻¹ s⁻¹"},
      {"measurement": "Km", "setting": "purified protein [2]", "result": "0.35 ± 0.01", "unit": "mM"},
      {"measurement": "kcat", "setting": "purified protein [2]", "result": "0.69 ± 0.01", "unit": "s⁻¹"},
      {"measurement": "kcat/Km", "setting": "purified protein [2]", "result": "1970 ± 50", "unit": "M⁻¹ s⁻¹"},
      {"measurement": "Km", "setting": "purified protein [3]", "result": "0.26 ± 0.01", "unit": "mM"},
      {"measurement": "kcat", "setting": "purified protein [3]", "result": "0.7 ± 0.002", "unit": "s⁻¹"},
      {"measurement": "kcat/Km", "setting": "purified protein [3]", "result": "2750 ± 120", "unit": "M⁻¹ s⁻¹"}
    ]}
  ]
}
